Patent US12545899B2, “Luciferase enzymes for use with thermostable luciferins in bioluminescent assays” (Promega Corporation, priority 2018, dated 2026)

Assay: Luminescence of ATG-3707 variants (second round epPCR) with CS0333
Assay type: biochemical
Details: for Luminescence (RLU) BrightGlo / Normalized Luminescence BrightGlo: BrightGlo buffer; for Luminescence (RLU) BrightGlo / Luminescence (RLU) CellTiterGlo / Luminescence (RLU) Detection Reagent: 25° C., 3 min; for Normalized Luminescence BrightGlo / Normalized Luminescence CellTiterGlo / Normalized Luminescence Detection Reagent: normalized to ATG-3707; for Luminescence (RLU) CellTiterGlo / Normalized Luminescence CellTiterGlo: CellTiterGlo buffer; for Luminescence (RLU) Detection Reagent / Normalized Luminescence Detection Reagent: Detection Reagent buffer
Procedure: Reagent compositions included CS0333 diluted from 20 mM to 2 mM in reaction buffer with 2 mM ATP. […] Reactions were incubated at 25° C. for 3 min, and luminescence was read and then normalized to ATG-3707 activity tested in parallel.

Row | Molecule | Luminescence (RLU) BrightGlo | Normalized Luminescence BrightGlo | Luminescence (RLU) CellTiterGlo | Normalized Luminescence CellTiterGlo | Luminescence (RLU) Detection Reagent | Normalized Luminescence Detection Reagent
1 | C2158H1: SEQ ID NO: 44; H244W+T344A+I396K+S193A+N228D+L305F+S306P+I109V+I230F (protein) MADKNILYGPEPFYPLEDGTAGEQMFDALSRYAAIPGCIALTNAHTKENVLYEEFLKLSCRLAESFKKYGLKQNDTIAVCSENSLQFFLPVIASLYLGIIVAPVNDKYVERELIHSLGIVKPRIVFCSKNTFQKVLNVKSKLKSIETIIILDLNEDLGGYQCLNNFISQNSDSNLDVKKFKPYSFNRDDQVAAIMFSSGTTGLPKGVMLTHKNIVARFSIAKDPTFGDAFNPTSAILTVIPFHWGFGMMTTLGYFTCGFRVVLMHTFEEKLFLQSLQDYKVESTLLVPTLMAFLAKSALVEKYDFPHLKEIASGGAPLSKEIGEMVKKRFKLNFVRQGYGLTEATSAVLITPKGDAKPGSTGKIVPLHAVKVVDPTTGKILGPNEPGELYFKGPMKMKGYYNNEEATKAIIDNDGWLRSGDIAYYDNDGHFYIVDRLKSLIKYKGYQVAPAEIEGILLQHPYIVDAGVTGIPDEAAGELPAAGVVVQTGKYLNEQIVQDYVASQVSTAKWLRGGVKFLDEIPKGSTGKIDRKVLRQMLEKHTNGHHHHHHHH | 3760160 RLU | 0.97 | 778990 RLU | 1.21 | 6098750 RLU | 1.18
2 | C2160C1: SEQ ID NO: 51; H244W+T344A+I396K+S193A+N228D+L305F+S306P+I109V+K121Q+F246Y+V261A (protein) MADKNILYGPEPFYPLEDGTAGEQMFDALSRYAAIPGCIALTNAHTKENVLYEEFLKLSCRLAESFKKYGLKQNDTIAVCSENSLQFFLPVIASLYLGIIVAPVNDKYVERELIHSLGIVQPRIVFCSKNTFQKVLNVKSKLKSIETIIILDLNEDLGGYQCLNNFISQNSDSNLDVKKFKPYSFNRDDQVAAIMFSSGTTGLPKGVMLTHKNIVARFSIAKDPTFGDAINPTSAILTVIPFHWGYGMMTTLGYFTCGFRAVLMHTFEEKLFLQSLQDYKVESTLLVPTLMAFLAKSALVEKYDFPHLKEIASGGAPLSKEIGEMVKKRFKLNFVRQGYGLTEATSAVLITPKGDAKPGSTGKIVPLHAVKVVDPTTGKILGPNEPGELYFKGPMKMKGYYNNEEATKAIIDNDGWLRSGDIAYYDNDGHFYIVDRLKSLIKYKGYQVAPAEIEGILLQHPYIVDAGVTGIPDEAAGELPAAGVVVQTGKYLNEQIVQDYVASQVSTAKWLRGGVKFLDEIPKGSTGKIDRKVLRQMLEKHTNGHHHHHHHH | 4459170 RLU | 1.15 | 450262 RLU | 0.70 | 5002710 RLU | 0.97
3 | C2159F8: SEQ ID NO: 48; H244W+T344A+I396K+S193A+N228D+L305F+S306P+I109V+Y32C (protein) MADKNILYGPEPFYPLEDGTAGEQMFDALSRCAAIPGCIALTNAHTKENVLYEEFLKLSCRLAESFKKYGLKQNDTIAVCSENSLQFFLPVIASLYLGIIVAPVNDKYVERELIHSLGIVKPRIVFCSKNTFQKVLNVKSKLKSIETIIILDLNEDLGGYQCLNNFISQNSDSNLDVKKFKPYSFNRDDQVAAIMFSSGTTGLPKGVMLTHKNIVARFSIAKDPTFGDAINPTSAILTVIPFHWGFGMMTTLGYFTCGFRVVLMHTFEEKLFLQSLQDYKVESTLLVPTLMAFLAKSALVEKYDFPHLKEIASGGAPLSKEIGEMVKKRFKLNFVRQGYGLTEATSAVLITPKGDAKPGSTGKIVPLHAVKVVDPTTGKILGPNEPGELYFKGPMKMKGYYNNEEATKAIIDNDGWLRSGDIAYYDNDGHFYIVDRLKSLIKYKGYQVAPAEIEGILLQHPYIVDAGVTGIPDEAAGELPAAGVVVQTGKYLNEQIVQDYVASQVSTAKWLRGGVKFLDEIPKGSTGKIDRKVLRQMLEKHTNGHHHHHHHH | 4599710 RLU | 1.18 | 650068 RLU | 1.01 | 5611680 RLU | 1.09
4 | C2261E4: SEQ ID NO: 50; H244W+T344A+I396K+S193A+N228D+L305F+S306P+I109V+I230F (protein) MADKNILYGPEPFYPLEDGTAGEQMFDALSRYAAIPGCIALTNAHTKENVLYEEFLKLSCRLAESFKKYGLKQNDTIAVCSENSLQFFLPVIASLYLGIIVAPVNDKYVERELIHSLGIVKPRIVFCSKNTFQKVLNVKSKLKSIETIIILDLNEDLGGYQCLNNFISQNSDSNLDVKKFKPYSFNRDDQVAAIMFSSGTTGLPKGVMLTHKNIVARFSIAKDPTFGDAFNPTSAILTVIPFHWGFGMMTTLGYFTCGFRVVLMHTFEEKLFLQSLQDYKVESTLLVPTLMAFLAKSALVEKYDFPHLKEIASGGAPLSKEIGEMVKKRFKLNFVRQGYGLTEATSAVLITPKGDAKPGSTGKIVPLHAVKVVDPTTGKILGPNEPGELYFKGPMKMKGYYNNEEATKAIIDNDGWLRSGDIAYYDNDGHFYIVDRLKSLIKYKGYQVAPAEIEGILLQHPYIVDAGVTGIPDEAAGELPAAGVVVQTGKYLNEQIVQDYVASQVSTAKWLRGGVKFLDEIPKGSTGKIDRKVLRQMLEKHTNGHHHHHHHH | 3249560 RLU | 0.84 | 710098 RLU | 1.10 | 5375380 RLU | 1.04
5 | C2262C2: SEQ ID NO: 47; H244W+T344A+I396K+S193A+N228D+L305F+S306P+I109V+Y183C+V261A+T289S (protein) MADKNILYGPEPFYPLEDGTAGEQMFDALSRYAAIPGCIALTNAHTKENVLYEEFLKLSCRLAESFKKYGLKQNDTIAVCSENSLQFFLPVIASLYLGIIVAPVNDKYVERELIHSLGIVKPRIVFCSKNTFQKVLNVKSKLKSIETIIILDLNEDLGGYQCLNNFISQNSDSNLDVKKFKPCSFNRDDQVAAIMFSSGTTGLPKGVMLTHKNIVARFSIAKDPTFGDAINPTSAILTVIPFHWGFGMMTTLGYFTCGFRAVLMHTFEEKLFLQSLQDYKVESTLLVPSLMAFLAKSALVEKYDFPHLKEIASGGAPLSKEIGEMVKKRFKLNFVRQGYGLTEATSAVLITPKGDAKPGSTGKIVPLHAVKVVDPTTGKILGPNEPGELYFKGPMKMKGYYNNEEATKAIIDNDGWLRSGDIAYYDNDGHFYIVDRLKSLIKYKGYQVAPAEIEGILLQHPYIVDAGVTGIPDEAAGELPAAGVVVQTGKYLNEQIVQDYVASQVSTAKWLRGGVKFLDEIPKGSTGKIDRKVLRQMLEKHTNGHHHHHHHH | 3874490 RLU | 1.00 | 738328 RLU | 1.15 | 5661740 RLU | 1.10
6 | C2149A12: SEQ ID NO: 49; H244W+T344A+I396K+S193A+N228D+L305F+S306P+I109V+F246Y+V261A (protein) MADKNILYGPEPFYPLEDGTAGEQMFDALSRYAAIPGCIALTNAHTKENVLYEEFLKLSCRLAESFKKYGLKQNDTIAVCSENSLQFFLPVIASLYLGIIVAPVNDKYVERELIHSLGIVKPRIVFCSKNTFQKVLNVKSKLKSIETIIILDLNEDLGGYQCLNNFISQNSDSNLDVKKFKPYSFNRDDQVAAIMFSSGTTGLPKGVMLTHKNIVARFSIAKDPTFGDAINPTSAILTVIPFHWGYGMMTTLGYFTCGFRAVLMHTFEEKLFLQSLQDYKVESTLLVPTLMAFLAKSALVEKYDFPHLKEIASGGAPLSKEIGEMVKKRFKLNFVRQGYGLTEATSAVLITPKGDAKPGSTGKIVPLHAVKVVDPTTGKILGPNEPGELYFKGPMKMKGYYNNEEATKAIIDNDGWLRSGDIAYYDNDGHFYIVDRLKSLIKYKGYQVAPAEIEGILLQHPYIVDAGVTGIPDEAAGELPAAGVVVQTGKYLNEQIVQDYVASQVSTAKWLRGGVKFLDEIPKGSTGKIDRKVLRQMLEKHTNGHHHHHHHH | 4701610 RLU | 1.21 | 479613 RLU | 0.74 | 5480500 RLU | 1.06
7 | C2158H3: SEQ ID NO: 46; H244W+T344A+I396K+S193A+N228D+L305F+S306P+I109V+N154S+V261A+I410M (protein) MADKNILYGPEPFYPLEDGTAGEQMFDALSRYAAIPGCIALTNAHTKENVLYEEFLKLSCRLAESFKKYGLKQNDTIAVCSENSLQFFLPVIASLYLGIIVAPVNDKYVERELIHSLGIVKPRIVFCSKNTFQKVLNVKSKLKSIETIIILDLSEDLGGYQCLNNFISQNSDSNLDVKKFKPYSFNRDDQVAAIMFSSGTTGLPKGVMLTHKNIVARFSIAKDPTFGDAINPTSAILTVIPFHWGFGMMTTLGYFTCGFRAVLMHTFEEKLFLQSLQDYKVESTLLVPTLMAFLAKSALVEKYDFPHLKEIASGGAPLSKEIGEMVKKRFKLNFVRQGYGLTEATSAVLITPKGDAKPGSTGKIVPLHAVKVVDPTTGKILGPNEPGELYFKGPMKMKGYYNNEEATKAMIDNDGWLRSGDIAYYDNDGHFYIVDRLKSLIKYKGYQVAPAEIEGILLQHPYIVDAGVTGIPDEAAGELPAAGVVVQTGKYLNEQIVQDYVASQVSTAKWLRGGVKFLDEIPKGSTGKIDRKVLRQMLEKHTNGHHHHHHHH | 3892740 RLU | 1.00 | 648483 RLU | 1.01 | 5916440 RLU | 1.15
